In CN111138536A (REYOUNG (SUZHOU) BIOPHARMACEUTICAL CO LTD, dated 2020):

Target: T1, 人血清白蛋白 (human, UniProt P02768 25-609)
T1 construct: also called HSA; human serum albumin
Assay: SPR (Biacore T200); HSA amine-coupled to CM5 chip, NB4 as analyte

- Kd: 0.245 nM
B1: 单域抗体NB4 (VHH)
VHH: QVQLQESGGGSVQAGGSLRLACAASGYTYSSACMAWFRQAPGKEREKVATIYTGGTYPYYADSVKGRFTMSHDNAKNTVYLQMNSLKPEDTGMYYCAADASWGCRLSGSWGAKYNNWGQGTQVTVSS
notes: Camel-derived VHH, expressed in E. coli BL-21 from pET-22 with a C-terminal 6x His tag and purified on a nickel column; also called 抗人血清白蛋白单域抗体
